Data on 59 variants can be found in the MegaScale stability set (Tsuboyama et al. 2023).

The chains are these.
B1: HEEH_KT_rd6_0007 (parent)
chain: SIEEEIKKAEEAKEKGKTFIHGDFVATTEELLDELLKRLRKKL
B2: HHH_rd2_0155 (parent)
chain: PPDDERKKAEKAARSGNEEKAREILERLGYSEDEARELAKRLR

The variants in the first series derive from B1. Description: folding stability dG (cDNA display proteolysis); higher = more stable. Particulars: PBS, room temperature.
Turning to SIAEEIKKAEEAKEKGKTFIHGDFVATTEELLDELLKRLRKKL, the “folding stability dG” value came to 1.27 kcal/mol.

As to SPEEEIKKAEEAKEKGKTFIHGDFVATTEELLDELLKRLRKKL, the “folding stability dG” value amounted to 0.683 kcal/mol.

Take SKEEEIKKAEEAKEKGKTFIHGDFVATTEELLDELLKRLRKKL: the “folding stability dG” value came to 0.732 kcal/mol.

For SMEEEIKKAEEAKEKGKTFIHGDFVATTEELLDELLKRLRKKL, the “folding stability dG” value turned out to be 0.866 kcal/mol.

On to SGEEEIKKAEEAKEKGKTFIHGDFVATTEELLDELLKRLRKKL, for which the “folding stability dG” value turned out to be 0.715 kcal/mol.

With SFEEEIKKAEEAKEKGKTFIHGDFVATTEELLDELLKRLRKKL, the “folding stability dG” value was 0.811 kcal/mol.

Turning to SREEEIKKAEEAKEKGKTFIHGDFVATTEELLDELLKRLRKKL, the “folding stability dG” value came out at 0.776 kcal/mol.

SEEEEIKKAEEAKEKGKTFIHGDFVATTEELLDELLKRLRKKL: the “folding stability dG” value was 0.545 kcal/mol.

SDEEEIKKAEEAKEKGKTFIHGDFVATTEELLDELLKRLRKKL: the “folding stability dG” value is 0.705 kcal/mol.

As for STEEEIKKAEEAKEKGKTFIHGDFVATTEELLDELLKRLRKKL, the “folding stability dG” value worked out at 0.763 kcal/mol.

For SVEEEIKKAEEAKEKGKTFIHGDFVATTEELLDELLKRLRKKL, the “folding stability dG” value is 1.08 kcal/mol.

In the case of SQEEEIKKAEEAKEKGKTFIHGDFVATTEELLDELLKRLRKKL, the “folding stability dG” value came to 0.766 kcal/mol.

Consider SSEEEIKKAEEAKEKGKTFIHGDFVATTEELLDELLKRLRKKL, for which the “folding stability dG” value turned out to be 0.818 kcal/mol.

Regarding SAEEEIKKAEEAKEKGKTFIHGDFVATTEELLDELLKRLRKKL, the “folding stability dG” value was found to be 0.756 kcal/mol.

For the variant SNEEEIKKAEEAKEKGKTFIHGDFVATTEELLDELLKRLRKKL, the “folding stability dG” value stood at 0.583 kcal/mol.

As for SLEEEIKKAEEAKEKGKTFIHGDFVATTEELLDELLKRLRKKL, the “folding stability dG” value was found to be 1.47 kcal/mol.

Consider SWEEEIKKAEEAKEKGKTFIHGDFVATTEELLDELLKRLRKKL, for which the “folding stability dG” value came out at 1.04 kcal/mol.

For the variant SHEEEIKKAEEAKEKGKTFIHGDFVATTEELLDELLKRLRKKL, the “folding stability dG” value is 0.643 kcal/mol.

With SYEEEIKKAEEAKEKGKTFIHGDFVATTEELLDELLKRLRKKL, the “folding stability dG” value was determined as 0.989 kcal/mol.

Regarding LIEEEIKKAEEAKEKGKTFIHGDFVATTEELLDELLKRLRKKL, the “folding stability dG” value was found to be 1.23 kcal/mol.

Regarding QIEEEIKKAEEAKEKGKTFIHGDFVATTEELLDELLKRLRKKL, the “folding stability dG” value was determined as 1.07 kcal/mol.

Take YIEEEIKKAEEAKEKGKTFIHGDFVATTEELLDELLKRLRKKL: the “folding stability dG” value was determined as 1.36 kcal/mol.

Take WIEEEIKKAEEAKEKGKTFIHGDFVATTEELLDELLKRLRKKL: the “folding stability dG” value turned out to be 1.78 kcal/mol.

Turning to KIEEEIKKAEEAKEKGKTFIHGDFVATTEELLDELLKRLRKKL, the “folding stability dG” value is 1.14 kcal/mol.

AIEEEIKKAEEAKEKGKTFIHGDFVATTEELLDELLKRLRKKL: the “folding stability dG” value was 1.21 kcal/mol.

As to PIEEEIKKAEEAKEKGKTFIHGDFVATTEELLDELLKRLRKKL, the “folding stability dG” value was found to be 1.01 kcal/mol.

Consider FIEEEIKKAEEAKEKGKTFIHGDFVATTEELLDELLKRLRKKL, for which the “folding stability dG” value turned out to be 1.23 kcal/mol.

On to MIEEEIKKAEEAKEKGKTFIHGDFVATTEELLDELLKRLRKKL, for which the “folding stability dG” value stood at 1.16 kcal/mol.

Take NIEEEIKKAEEAKEKGKTFIHGDFVATTEELLDELLKRLRKKL: the “folding stability dG” value turned out to be 1.19 kcal/mol.

Turning to DIEEEIKKAEEAKEKGKTFIHGDFVATTEELLDELLKRLRKKL, the “folding stability dG” value was found to be 1.24 kcal/mol.

IIEEEIKKAEEAKEKGKTFIHGDFVATTEELLDELLKRLRKKL: the “folding stability dG” value turned out to be 0.975 kcal/mol.

As for TIEEEIKKAEEAKEKGKTFIHGDFVATTEELLDELLKRLRKKL, the “folding stability dG” value came out at 1.28 kcal/mol.

As for GIEEEIKKAEEAKEKGKTFIHGDFVATTEELLDELLKRLRKKL, the “folding stability dG” value turned out to be 1.11 kcal/mol.

As to HIEEEIKKAEEAKEKGKTFIHGDFVATTEELLDELLKRLRKKL, the “folding stability dG” value was 1.13 kcal/mol.

Regarding VIEEEIKKAEEAKEKGKTFIHGDFVATTEELLDELLKRLRKKL, the “folding stability dG” value is 1.01 kcal/mol.

Regarding EIEEEIKKAEEAKEKGKTFIHGDFVATTEELLDELLKRLRKKL, the “folding stability dG” value stood at 1.11 kcal/mol.

Take RIEEEIKKAEEAKEKGKTFIHGDFVATTEELLDELLKRLRKKL: the “folding stability dG” value came to 1.27 kcal/mol.

In the next series the parent is B2. The series is described as above. As to conditions: PBS, room temperature.
For PPDDERKKAEKAARSGNEEKAREILERLGYSEDEARELTKRLR, the “folding stability dG” value worked out at 1.21 kcal/mol.

For PPDDERKKAEKAARSGNEEKAREILERLGYSEDEARELYKRLR, the “folding stability dG” value amounted to 1.66 kcal/mol.

For the variant PPDDERKKAEKAARSGNEEKAREILERLGYSEDEARELVKRLR, the “folding stability dG” value was found to be 2.33 kcal/mol.

For PPDDERKKAEKAARSGNEEKAREILERLGYSEDEARELPKRLR, the “folding stability dG” value was -0.361 kcal/mol.

Turning to PPDDERKKAEKAARSGNEEKAREILERLGYSEDEARELQKRLR, the “folding stability dG” value is 0.366 kcal/mol.

For PPDDERKKAEKAARSGNEEKAREILERLGYSEDEARELSKRLR, the “folding stability dG” value is 1.02 kcal/mol.

Regarding PPDDERKKAEKAARSGNEEKAREILERLGYSEDEARELWKRLR, the “folding stability dG” value was 1.01 kcal/mol.

As for PPDDERKKAEKAARSGNEEKAREILERLGYSEDEARELRKRLR, the “folding stability dG” value worked out at 0.796 kcal/mol.

Consider PPDDERKKAEKAARSGNEEKAREILERLGYSEDEARELAKHLR, for which the “folding stability dG” value turned out to be 1.66 kcal/mol.

As to PPDDERKKAEKAARSGNEEKAREILERLGYSEDEARELAKILR, the “folding stability dG” value amounted to 1.6 kcal/mol.

As to PPDDERKKAEKAARSGNEEKAREILERLGYSEDEARELAKGLR, the “folding stability dG” value is 0.69 kcal/mol.

With PPDDERKKAEKAARSGNEEKAREILERLGYSEDEARELAKKLR, the “folding stability dG” value was 1.98 kcal/mol.

Consider PPDDERKKAEKAARSGNEEKAREILERLGYSEDEARELAKWLR, for which the “folding stability dG” value turned out to be 1.85 kcal/mol.

Take PPDDERKKAEKAARSGNEEKAREILERLGYSEDEARELAKCLR: the “folding stability dG” value was found to be 1.92 kcal/mol.

For PPDDERKKAEKAARSGNEEKAREILERLGYSEDEARELAKYLR, the “folding stability dG” value came to 1.73 kcal/mol.

For the variant PPDDERKKAEKAARSGNEEKAREILERLGYSEDEARELAKALR, the “folding stability dG” value was determined as 1.56 kcal/mol.

Turning to PPDDERKKAEKAARSGNEEKAREILERLGYSEDEARELAKELR, the “folding stability dG” value was 1.05 kcal/mol.

PPDDERKKAEKAARSGNEEKAREILERLGYSEDEARELAKVLR: the “folding stability dG” value worked out at 1.35 kcal/mol.

As for PPDDERKKAEKAARSGNEEKAREILERLGYSEDEARELAKMLR, the “folding stability dG” value was determined as 1.86 kcal/mol.

For PPDDERKKAEKAARSGNEEKAREILERLGYSEDEARELAKFLR, the “folding stability dG” value stood at 1.91 kcal/mol.

Regarding PPDDERKKAEKAARSGNEEKAREILERLGYSEDEARELAKDLR, the “folding stability dG” value is 0.97 kcal/mol.

On to PPDDERKKAEKAARSGNEEKAREILERLGYSEDEARELAKTLR, for which the “folding stability dG” value turned out to be 1.37 kcal/mol.
